T1: DR3 on cells (DR3 stable cell line; DR3 on human PBMC T cells) (human, UniProt Q93038 25-417)
T1 construct: whole, on cells; Also used for the DR3 of hPBMC T cells in the NF-kB assays; also called 세포 표면에서 발현된 DR3; DR3 natural form
T1 sequence (looked up): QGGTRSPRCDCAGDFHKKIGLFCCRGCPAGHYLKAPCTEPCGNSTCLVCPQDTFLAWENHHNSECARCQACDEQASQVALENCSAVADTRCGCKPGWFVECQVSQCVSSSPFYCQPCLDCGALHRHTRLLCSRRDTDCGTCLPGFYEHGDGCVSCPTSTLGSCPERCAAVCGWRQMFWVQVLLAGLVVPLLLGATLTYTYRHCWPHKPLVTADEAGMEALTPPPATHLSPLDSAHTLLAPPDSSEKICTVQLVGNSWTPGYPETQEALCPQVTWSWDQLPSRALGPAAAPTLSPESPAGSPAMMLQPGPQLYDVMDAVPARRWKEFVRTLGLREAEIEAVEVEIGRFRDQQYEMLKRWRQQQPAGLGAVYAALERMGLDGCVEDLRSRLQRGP


The binders below were run against T1, DR3 on cells (DR3 stable cell line; DR3 …) (assay: FACS, DR3 stable cell line, 2 ug/ml mAb, anti-human IgG PE).

binding result	Binder
binds	6-2 mAb (antibody, V domains shown, Human monoclonal IgG; also called clone 6-2; clone 6-2 IgG1) VH: QVQLVQSGGGLVQPGGSLRLSCAASGFTFSSYSMNWVRQAPGKGLEWVSYISSSSSTIYYADSVKGRFTISRDNAKNSLYLQMNSLRAEDTAVYYCARWDGYCSGGSCYSGMDYWGQGTLVTVS VL: not shown
binds	6-15 mAb (antibody, V domains shown, Human monoclonal IgG (detected with anti-human IgG Fc); also called clone 6-15) VH: QVQLVQSGGGLVQPGGSLRLSCAASGFTFSSYSMNWVRQAPGKGLEWVSYISSSSSTIYYADSVKGRFTISRDNAKNSLYLQMNSLRAEDTAVYYCARWDGYCSGGSCYSGMDYWGQGTLVTVS VL: DIEMTQSPSSLSASVGDKVTITCQASQDISNYLNWYQQKPGKAPKLLIYDASNLETGVPSRFSGSGSGTDSTFTISSLQPEDIATYYCQQYDNLPLTFGGGTKVEIK
binds	항-DR3 4-4 항체 (4-4 mAb) (antibody, V domains shown, also called clone 4-4; clone 4-4 IgG1) VH: EVQLVESGGGLVKPGGSLRLSCAASGFTFSDYYMSWIRQAPGKGLEWVSYISSSSSYTNYADSVKGRFTISRDNAKNSLYLQMNSLRAEDTAVYYCASNVDTAMVGAFDIWGQGTLVTVS VL: DIEMTQSPSSVSASVGDTVTITCRASQHISNWLAWYQQKPGQAPKFLIYTASNLQSGVPSRFSGSGYGTDFTLTISGLQPEDFATYYCQQADSFPLTFGGGTKVDIK

Reference: patent publication KR20230175116A (dated 2023)
